From the nanobody polyreactivity screen of Harvey et al. (2022)

assay: yeast display, Sf9 membrane polyspecificity reagent, FACS + sequencing; frameworks hold sequencing errors
How it was run: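 Nanobodies from a synthetic yeast display library (Saccharomyces cerevisiae BJ5465), induced 36–48 hours with galactose, were stained 1 hour at 4 °C with 10% biotinylated, detergent-solubilized Sf9 membrane reagent, enriched on streptavidin microbeads, then FACS-sorted. Anti-HA (expression) and streptavidin (reagent binding) fluorescence set low and high (top ~1%) gates. Polyreactivity labels come from the gate of origin. Genes were colony-PCR amplified, MiSeq 2 × 250 sequenced and filtered by CDR length.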

| Sequence | polyreactivity (PSR sort gate) |
| --- | --- |
| QVQLVESAVGLVQAGGSLPLSCDASSSTIYPYAMGWYRQAPGKERELVAAISSGGSTSYADSVKGRFTISRDNAKNTVYLQMNSLKPEDTAVYYCNADPLQCKLWTYFFGFPGYYWGQGTQVTVSS | low polyreactivity |
| QVQLVESGGGLVQAGGSLRLSCAASGITFTEYAMGWYRQAPGKERELVAAITGSGTSTYYADSVKGRFTISRDNAKNTVYLQMNSLKPEDTAVYYCAAERKNKYDYWGQGTQVTVSS | high polyreactivity |
| QVQLQESGGGLVQAGGSLRLSCAASGYISHAVEMCWYRQAPGKEHELVASISNGGSTNYADSVKGRFTISRDNAKNTVYLQMNSLKSEDTAVYYCAGWTGQVDIHYYWGQGTQVTVSS | low polyreactivity |
| QVQLVESGGGLVQAGGSLRLSCAASGSIFDINAMGWYRPAPGKERELVADIRGGDSTNYADSVKGRFTISRDNATNTVYLQMNSLKPEDTAVYYSAARWRRSKYGVYPQRPYDYWGQGTQVTVSS | high polyreactivity |
| QVQLVESGGGLVQAGGSLRLSCAASGSTFSRYAMGWYRQAPGKERELVAAISSRGGSTYYADSVKGRFTISRDNAKNTVYLQMNSLKPEDTAVYYCNALTSYQNHVYPYDYWGQGTQVTVSS | high polyreactivity |
| QVQLVESGGGLVQAGGSLRLSCAPCGSIFSSYAMGWYRQAPGQDWELVAAISSGGCITYYADSVKGRFTISRDNAKNTVYLQMHSLKPEDTAVYYCNARVARSNYGWYYDWGQGTQVTVSS | high polyreactivity |
| QVQLVESGGGLVQAGGSLRLSCAASGRIRFYAMGWYIQAPGKERELVAAISSSGGSTYYADSVKGRFTISRDNAKNTVYLQMNSLKPEDTAVYYCAAAWYYLGTRAQLYDYWGQGTQVTVSS | low polyreactivity |
| QVQLVESGGGLVQAGGSLRLSCAASGRTFYINAMGWYRPEPGKERELVAAISSSGGITYYADSVKGRFTISRDNAKNTVNLQMIRLKPEDTAVYYCNAPNDYSWHYDYWGQGTQVTVSS | low polyreactivity |
| QVQLVESGGGLVQAGGSLRLSCAASGRTFYRNAMGWYRQAPGKERELVAAISSTGSTYSADSVKGRFTISRDNAKNTVYLQMNSLKPEDTAVYYCARGVHGIFGYWGQGTQVTVSS | low polyreactivity |
| QVQLVESGGGLVQAGGSLRLSCAASGSISPQNVMGWYTQAPGKERELVAAITGGGSTNYADSVKGRFTISRDNAKNTVFLLMNSLKPEDTAVYYCNADYFQDRLDYWGQGTQVTVSS | low polyreactivity |
| QVQLVESGGGLVQAGGSLRLSCAASGFTFYSNAMGWYRQAPGKERELGAAITWSTGNTYYADSVKGRFTISRDNAKNTVYLQMNSLKPEDTAVYYCAARSHTGYYPPSYYWGQATQVTVSS | high polyreactivity |
| QVQLVESGGGLVQAGGSLRLSCAASGSTFGFNAMGWYRQAPGKERELVAAITKSGGSTYYADSVKGRFTISRDNAKNTVYLQMNSLKPEDTAVYYCAARRSGRKYDYWGQGTQVTVSS | high polyreactivity |
| QVQLVESGGGLVQAGGSLRLSCAASGIIFTPNAMGWSRQAPGKERELVAAINYGGDTTYYADSVKGRFTISRDNAKNTVYFQMNSLKPADTAVYYCATDGTTPTPRDAFVRFDHWGQGTQVTVSS | low polyreactivity |
| QVQLVESGGGLVQAGGSLRLSCAASGSIFTYNAMGWYRQAPGKERELVAAISRGGGRTYYADSVKGRFTISRDNAKNTVYLQMNSLKPEDTAVYYCAADIYVRQRYPYYYWGQGTQVTVSS | high polyreactivity |
| QVQLVESGGGLVQAGGSLRLSCAASGFTLSYNVMGWYRQAPGKERELVAAISDSGGSTYYADSVKGRFTISRDNAKNTVYLQMNSLKPEDTAVYYCAAYYPTRYQYGTIWVAYNYWGQGTQVTVSS | low polyreactivity |
| QVQLVESGGGLVQAGGSLRISSAASGSIFGRYAMGWYRQAPGKERELVAAISSGTSTYYADSVKGRFTISRDNAKNTVYLQRNSLIPEDTAVYYCAARRYSVRSGGTGRMYYWGQGTQVTVSS | high polyreactivity |
